Data: patent publication US12590158 (XIYUAN ANJIAN MEDICINE SHANGHAI, dated 2026)
Like-named read-outs stand apart in the source and are kept apart here.

B1: anti-TrkA antibody 40D6 (antibody, V domains shown)
VH: QVQLQQSGTELMKPGASVKISCKATGYTFSRYWIEWVKQRPGHGLEWIGEILPGRSSTNYNEKFKGKATFTADTSSNTAYMQLSSLTSEDSAVYYCTRVSQLHIYFDYWGQGTTVTVSS
VL: DIVMTQVVPSVPVTPGESVSISCRSSKSLLHSNGNTYLYWFQQRPGQSPQLLIYRMSNLASGVPDRFSGSGSGTAFTLRISRVEAEDVAFYYCMQHLEFPLTFGAGTKLELK
notes: Murine monoclonal antibody purified from hybridoma medium by protein G
B2: anti-TrkA antibody 42H6 (antibody, V domains shown)
VH: QVQLQQPGVELVKPGASVKLSCKTSGYTFTSYWMHWVKQRPGQGLEWIGEIYSSNGLTNYNEKFKNKATLTVDKSSSTAYMQLTSLTSEDSAIYYCARHWYVFLDHWGQGTTLTVSS
VL: QAVVTQESALTTSPGETVTLTCRSSTGAVTTSNHANWVQEKPDHLFTGLIGGINNRAPGVPARFSGSLIGDKAALTITGAQTEDEAIYFCALWYSNHWVFGGGTRLTVL
notes: as for B1
B3: anti-TrkA antibody 42A11 (antibody, V domains shown)
VH: QVQLQQPGAELVKPGASVKLSCKASGYTFTNYWMHWVKQRPGQGLEWIGEIYPSNGRTNYNEKFKTKATLTVDKSSSTAYMHLSSLTSEDSAVYYCAGSRYDAMDFWGQGTSVTVSS
VL: QIVLTQSPAIMSASPGEKVTMTCSASSIISYMHWYQQKSGTSPKRWIYDTSKLASGVPARFSGSGSGTSYSLTISGMEAEDAATYYCHQWTSNPLTFGGGTKLELK
notes: as for B1
B4: human-mouse chimeric antibody 42F5-Chi (antibody, V domains shown)
VH: QVQLQQPGAELVKPGASVKLSCKSSGYTFTNYWMHWVRQRPGQGLEWIGEIYPNNGRVNYNEKFKNRATLTVDISSSTAYMQLSSLTSEDSAVYYCARSRYDPMEDWGQGTSVTVSS
VL: QVVLTQSPAIMSASPGEKVTMTCSASSSVGYMHWYQQKSGTSPKRWIYDTSKLASGVPTRFSGSGSGTSYSLTISSMEAEDAATYFCQQWSSIPLTFGSGTRLEIK
B5: humanized anti-TrkA antibody 42F5-01 (antibody, V domains shown)
VH: QVQLVQSGAEVKKPGASVKVSCKSSGYTFTNYWMHWVRQAPGQGLEWMGEIYPNNGRVNYNEKFKNRVTMTVDISISTAYMELSRLRSDDTAVYYCARSRYDPMEDWGQGTTVTVSS
VL: DVQLTQSPSSLSASVGDRVTITCSASSSVGYMHWYQQKPGKAPKRLIYDTSKLASGVPSRFSGSGSGTDYTLTISSLQPEDFATYFCQQWSSIPLTFGQGTRLEIK
notes: VH grafted to human IgG4 heavy chain constant region, VL to human Kappa light chain constant region; also called 43F5-01 [sic]
B6: humanized anti-TrkA antibody 42F5-05 (antibody, V domains shown)
VH: QVQLVQSGAEVKKPGASVKVSCKSSGYTFTNYWMHWVRQAPGQGLEWMGEIYPNNGRVNYNEKFKNRVTMTVDISISTAYMELSRLRSDDTAVYYCARSRYDPMEDWGQGTTVTVSS
VL: QVQLTQSPSSLSASVGDRVTITCSASSSVGYMHWYQQKPGKAPKRLIYDTSKLASGVPSRFSGSGSGTDYTLTISSLQPEDFATYFCQQWSSIPLTFGQGTRLEIK
notes: VH grafted to human IgG4 heavy chain constant region, VL to human Kappa light chain constant region

What was measured:
[1] = biological target: T1, full-length human TrkA expressed on cells (human, UniProt P04629 33-796); experiment: cell-based or functional assay
T1 sequence (P04629 33-796): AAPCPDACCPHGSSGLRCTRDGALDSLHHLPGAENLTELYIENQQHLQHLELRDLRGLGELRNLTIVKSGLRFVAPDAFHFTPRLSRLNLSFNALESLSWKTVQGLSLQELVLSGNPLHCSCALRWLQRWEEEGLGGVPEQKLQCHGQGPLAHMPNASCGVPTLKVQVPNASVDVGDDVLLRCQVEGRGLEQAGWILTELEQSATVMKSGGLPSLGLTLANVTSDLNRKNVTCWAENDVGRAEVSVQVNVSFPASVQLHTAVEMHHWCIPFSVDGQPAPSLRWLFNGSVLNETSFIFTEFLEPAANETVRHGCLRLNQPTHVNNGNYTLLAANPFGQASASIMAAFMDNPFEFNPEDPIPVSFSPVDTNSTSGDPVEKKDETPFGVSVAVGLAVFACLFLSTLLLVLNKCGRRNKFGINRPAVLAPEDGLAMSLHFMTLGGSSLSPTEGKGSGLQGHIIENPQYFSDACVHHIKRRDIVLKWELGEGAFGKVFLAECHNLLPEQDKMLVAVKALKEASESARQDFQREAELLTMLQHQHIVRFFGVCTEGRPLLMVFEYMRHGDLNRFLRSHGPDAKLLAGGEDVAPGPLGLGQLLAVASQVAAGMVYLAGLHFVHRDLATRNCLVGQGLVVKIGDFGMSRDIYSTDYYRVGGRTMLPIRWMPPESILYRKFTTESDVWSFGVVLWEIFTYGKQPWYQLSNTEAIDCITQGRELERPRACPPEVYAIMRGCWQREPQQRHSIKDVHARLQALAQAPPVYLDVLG

[2] = biological target: T1, full-length human TrkA expressed on …; experiment: cell-based or functional assay; remark: listed apart in the source
[3] = biological target: T1, full-length human TrkA expressed on …; experiment: cell-based or functional assay; remark: listed apart in the source
[4] = biological target: fusion protein (fused to human Fc) containing only the portion of human TrkA extracellular region that binds NGF (TrkA 192-402) (ACROBiosystems TRA-H5258) (human) (UniProt P04629); experiment: ELISA, coated human TrkA (192-402)-hFc
fusion protein (fused to human Fc) containing only the portion of human TrkA extracellular region that binds NGF (TrkA 192-402) (ACROBiosystems TRA-H5258) (human), sequence (P04629 192-402 limits assumed, form in doubt): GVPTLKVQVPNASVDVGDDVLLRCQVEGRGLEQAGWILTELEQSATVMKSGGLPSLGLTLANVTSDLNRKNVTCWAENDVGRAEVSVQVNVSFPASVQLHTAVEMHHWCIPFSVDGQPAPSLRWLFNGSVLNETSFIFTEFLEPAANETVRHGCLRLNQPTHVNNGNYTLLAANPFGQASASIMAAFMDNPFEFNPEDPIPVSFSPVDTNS

[5] = biological target: T2, TrkA extracellular region (33-417) protein comprising human Fc (ACROBiosystems TRA-H5259) (human, UniProt P04629 33-417); experiment: ELISA, coated human TrkA (33-417)-hFc, anti-mouse Fc-HRP
T2 construct: range 33-417; Bought fusion protein; also called human TrkA (33-417); human TrkA extracellular region
T2 sequence (P04629 33-417 limits assumed): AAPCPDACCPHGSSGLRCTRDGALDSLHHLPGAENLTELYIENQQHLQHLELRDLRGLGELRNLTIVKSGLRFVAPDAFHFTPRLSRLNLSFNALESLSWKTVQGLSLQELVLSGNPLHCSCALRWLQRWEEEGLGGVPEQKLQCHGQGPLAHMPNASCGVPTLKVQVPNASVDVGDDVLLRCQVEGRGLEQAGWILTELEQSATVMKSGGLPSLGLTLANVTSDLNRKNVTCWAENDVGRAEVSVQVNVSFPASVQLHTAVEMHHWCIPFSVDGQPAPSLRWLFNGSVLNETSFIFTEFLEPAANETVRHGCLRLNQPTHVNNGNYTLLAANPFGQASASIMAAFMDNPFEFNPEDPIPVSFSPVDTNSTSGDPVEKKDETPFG
Experimental: (§1) Example 2: ELISA Detection of the Binding of Murine Anti-TrkA Antibodies to Human TrkA The binding abilities of the anti-TrkA antibodies were detected by using a TrkA extracellular region (33-417) protein comprising human Fc (Beijing ACROBiosystems Co., Ltd., TRA-H5259). Each well of a 96-well microtiter plate was coated with 50 ng of human TrkA, washed and blocked, and then added with serially diluted antibodies, and incubated at room temperature for 1 hour. After washing three times, horseradish peroxidase-conjugated goat anti-mouse Fc antibody (Biolegend, 405306) was added and incubated at room temperature for 1 hour. After washing three time, tetramethylbenzidine (TMB, Biolegend, 421101) was added for color development. 1M HCl was used to terminate the color development, and the absorbance values were read at 450 nm with a microplate reader.

[6] = biological target: T3, rat TrkA extracellular region fusion protein (fused to human Fc) (Yiqiao Shenzhou 80243-R03H) (rat, UniProt P35739 33-418); experiment: ELISA, plate coated with rat TrkA extracellular region-hFc, HRP goat anti-mouse Fc detection
T3 construct: extracellular domain; Bought fusion protein
T3 sequence (P35739 33-418, stated change not applied): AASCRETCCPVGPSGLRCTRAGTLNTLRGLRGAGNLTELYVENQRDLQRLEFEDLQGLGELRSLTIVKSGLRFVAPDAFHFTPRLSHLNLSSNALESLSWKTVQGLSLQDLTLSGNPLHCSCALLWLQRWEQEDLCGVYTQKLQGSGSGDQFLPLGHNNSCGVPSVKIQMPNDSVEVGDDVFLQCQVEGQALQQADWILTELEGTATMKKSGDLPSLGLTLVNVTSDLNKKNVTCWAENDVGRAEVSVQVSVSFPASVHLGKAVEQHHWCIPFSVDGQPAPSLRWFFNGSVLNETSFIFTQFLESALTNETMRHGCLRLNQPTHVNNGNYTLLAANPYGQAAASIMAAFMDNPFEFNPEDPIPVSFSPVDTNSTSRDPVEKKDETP
Experimental: as §1
(§2) In addition, the species cross-reactivities of anti-TrkA antibodies were detected with monkey TrkA (Hangzhou Haoyang Biotechnology Co., Ltd., HSP037-05), rat TrkA (Beijing Yiqiao Shenzhou Technology Co., Ltd., 80243-R03H), mouse TrkA (Beijing Yiqiao Shenzhou Technology Co., Ltd., 51103-M02H) extracellular region fusion protein (fused to human Fc).

[7] = biological target: T2, TrkA extracellular region (33-417) …; experiment: competition ELISA, coated TrkA (33-417)-hFc, antibody titrated, competitor biotin-labeled human NGF
Experimental: Each well of a 96-well microtiter plate was coated with 50 ng of TrkA extracellular region (33-417) protein fused to human Fc, washed three times and blocked with 3% BSA for 1 hour. […] Each well was added with 100 μl and incubated at room temperature for 30 minutes. […] Streptavidin-labeled horseradish peroxidase (Streptavidin-HRP, Biolegend, 405210) was added and incubated for 0.5 hours. After washing three times, TMB was added to the plate, and the absorbance at 450 nm was read by a microplate reader after the color development was terminated.

[8] = biological target: T2, TrkA extracellular region (33-417) …; experiment: BLI (ForteBio Octet Red96), TrkA (33-417)-hFc captured on anti-human Fc sensor, antibody in solution
Source text: Example 3: Affinity Assay of Murine Anti-TrkA Antibodies Binding to Human TrkA The affinities of the antibodies were detected with Biomolecular Interaction Detection Platform (ForteBio Octet Red96 (PALL)).
Human TrkA extracellular region (33-417) protein containing human Fc tag was fixed onto a chip by using an anti-human Fc capture sensor (Fortebio, 18-5088), and then bound to gradient concentrations of anti-TrkA antibody.

[9] = biological target: T4, mouse TrkA extracellular region fusion protein (fused to human Fc) (Yiqiao Shenzhou 51103-M02H) (mouse, UniProt Q3UFB7 34-420); experiment: ELISA, plate coated with mouse TrkA extracellular region-hFc, HRP goat anti-mouse Fc detection
T4 construct: extracellular domain; Bought fusion protein
T4 sequence (Q3UFB7 34-420, stated change not applied): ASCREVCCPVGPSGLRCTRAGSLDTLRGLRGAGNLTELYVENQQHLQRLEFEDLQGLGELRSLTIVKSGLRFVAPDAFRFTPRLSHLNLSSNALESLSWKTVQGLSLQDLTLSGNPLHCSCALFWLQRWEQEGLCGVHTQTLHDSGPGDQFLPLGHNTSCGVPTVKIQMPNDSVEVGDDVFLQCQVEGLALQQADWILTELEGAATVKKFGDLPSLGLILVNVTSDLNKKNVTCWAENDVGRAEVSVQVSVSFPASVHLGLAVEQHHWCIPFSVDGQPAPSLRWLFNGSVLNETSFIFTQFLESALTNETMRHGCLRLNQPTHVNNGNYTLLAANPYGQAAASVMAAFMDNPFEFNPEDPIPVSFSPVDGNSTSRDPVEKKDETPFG
Experimental: as §1, §2

[10] = biological target: T5, human TrkB extracellular region protein (Yiqiao Shenzhou 10047-H03H) (human, UniProt Q16620 32-430); experiment: ELISA, plate coated with human TrkB extracellular region protein, HRP goat anti-mouse Fc detection
T5 construct: extracellular domain; Bought protein
T5 sequence (Q16620 32-430): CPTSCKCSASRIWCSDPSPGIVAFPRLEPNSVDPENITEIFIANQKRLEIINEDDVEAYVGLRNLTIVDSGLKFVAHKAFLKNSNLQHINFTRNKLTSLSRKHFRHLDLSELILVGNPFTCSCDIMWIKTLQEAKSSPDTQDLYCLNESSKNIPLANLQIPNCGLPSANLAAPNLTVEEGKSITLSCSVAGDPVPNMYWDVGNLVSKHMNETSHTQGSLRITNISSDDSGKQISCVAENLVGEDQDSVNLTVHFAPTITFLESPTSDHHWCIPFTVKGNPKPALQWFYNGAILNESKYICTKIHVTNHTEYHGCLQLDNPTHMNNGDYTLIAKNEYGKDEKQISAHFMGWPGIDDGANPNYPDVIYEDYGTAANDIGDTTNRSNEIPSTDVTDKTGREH
Experimental: as §1
(§3) Example 7: Detection of the Binding of Murine Anti-TrkA Antibodies to TrkA Proteins of the Same Family Each well of a 96-well microtiter plate was coated with 50 ng of human TrkA extracellular region protein, human TrkB extracellular region protein (Beijing Yiqiao Shenzhou Technology Co., Ltd., 10047-H03H), human TrkC extracellular region protein (Beijing Yiqiao Shenzhou Technology Co., Ltd., 10048-H03H). The bindings of the anti-TrkA antibodies to human TrkA and the two proteins of the same family were detected according to the method described in Example 2.

[11] = biological target: T6, human TrkC extracellular region protein (Yiqiao Shenzhou 10048-H03H) (human, UniProt Q16288 32-429); experiment: ELISA, plate coated with human TrkC extracellular region protein, HRP goat anti-mouse Fc detection
T6 construct: extracellular domain; Bought protein
Experimental: as §1, §3

[12] = biological target: T1, full-length human TrkA expressed on …; experiment: cell-based or functional assay; remark: listed apart in the source
[13] = biological target: T1, full-length human TrkA expressed on …; experiment: cell-based or functional assay; remark: listed apart in the source
[14] = biological target: T1, full-length human TrkA expressed on …; experiment: flow cytometry titration on TrkA/CHO cells
Experimental: (§4) The cells were cultured according to the manufacturer's instruction. The cells were harvested in the logarithmic growth phase, re-suspended in flow buffer (PBS+2% FBS, pH 7.4), and added into 96-well plate, 10^5 cells per well (50 µl). 50 µl of 100 µg/mL humanized anti-TrkA antibody was added, incubated at room temperature for 60 min, and centrifuged at 1200 rpm. The supernatant was discarded and the cells were washed 3 times. FITC-labeled goat anti-human Fc antibody (Abeam, ab97224) was diluted to 5 µg/mL with flow buffer and used to re-suspend the cells, incubated at room temperature for 30 min in the dark, centrifuged, and the supernatant was discarded. After washing 3 times, the cells were re-suspended with 7AAD solution (Biolegend, 420403), incubated for 10 min at room temperature, and the binding of the antibody was detected with a flow cytometer (BioRad, ZE5).
The binding curve of the humanized anti-TrkA antibodies and TrkA/CHO cells was detected with the same flow cytometry.

[15] = biological target: T7, human TrkA extracellular region (33-417) protein containing mouse Fc (human, UniProt P04629 33-417); experiment: ELISA, coated human TrkA (33-417)-mouse Fc, anti-human IgG-HRP
T7 construct: range 33-417
T7 sequence (P04629 33-417 limits assumed): as the sequence (P04629 33-417 limits assumed) above
Experimental: Each well of a 96-well microtiter plate was coated with 50 ng of human TrkA, washed and blocked, then added with serially diluted humanized antibodies, and incubated for 1 hour at room temperature. After washing three times, horseradish peroxidase-conjugated goat anti-human IgG antibody (ThermoFisher, A18817) was added and reacted at room temperature for 1 hour. After washing three time, tetramethylbenzidine (TMB, Biolegend) was added for color development. 1M HCl was used to terminate the color development, and the absorbance values were read at 450 nm with a microplate reader.

[16] = biological target: T8, human TrkB expressed on CHO cells (TrkB/CHO, ThermoFisher K1491) (human, UniProt Q16620 32-822); experiment: flow cytometry on TrkB/CHO cells, FITC goat anti-human Fc
T8 construct: whole, on cells
T8 sequence (Q16620 32-822): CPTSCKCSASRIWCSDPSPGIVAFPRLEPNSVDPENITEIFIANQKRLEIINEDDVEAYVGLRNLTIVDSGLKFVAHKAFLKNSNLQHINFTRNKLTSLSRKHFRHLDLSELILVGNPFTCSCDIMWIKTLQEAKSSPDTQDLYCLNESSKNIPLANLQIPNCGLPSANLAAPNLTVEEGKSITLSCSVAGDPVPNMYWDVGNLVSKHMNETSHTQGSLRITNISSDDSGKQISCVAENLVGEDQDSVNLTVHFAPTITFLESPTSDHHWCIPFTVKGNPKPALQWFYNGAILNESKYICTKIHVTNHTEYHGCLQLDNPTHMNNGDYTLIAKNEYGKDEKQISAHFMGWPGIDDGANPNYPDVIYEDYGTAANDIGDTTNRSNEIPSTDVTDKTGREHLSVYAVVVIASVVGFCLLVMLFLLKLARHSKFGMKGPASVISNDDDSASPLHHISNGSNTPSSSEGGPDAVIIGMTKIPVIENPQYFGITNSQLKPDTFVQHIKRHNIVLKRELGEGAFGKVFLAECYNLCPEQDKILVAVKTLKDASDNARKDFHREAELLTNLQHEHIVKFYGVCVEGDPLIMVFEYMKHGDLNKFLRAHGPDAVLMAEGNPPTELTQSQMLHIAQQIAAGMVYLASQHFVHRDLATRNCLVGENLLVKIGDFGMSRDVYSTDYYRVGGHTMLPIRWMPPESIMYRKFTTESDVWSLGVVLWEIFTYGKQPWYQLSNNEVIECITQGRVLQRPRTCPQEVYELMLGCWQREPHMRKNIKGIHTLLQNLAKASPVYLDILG
Experimental: (§5) CHO-K1 was used as a negative control. The binding of the humanized antibodies to the four cell lines was detected by flow cytometry.
as §4

[17] = biological target: T9, human TrkC expressed on CHO cells (TrkC/CHO, ThermoFisher K1515) (human, UniProt Q16288 32-839); experiment: flow cytometry on TrkC/CHO cells, FITC goat anti-human Fc
T9 construct: whole, on cells
T9 sequence (Q16288 32-839): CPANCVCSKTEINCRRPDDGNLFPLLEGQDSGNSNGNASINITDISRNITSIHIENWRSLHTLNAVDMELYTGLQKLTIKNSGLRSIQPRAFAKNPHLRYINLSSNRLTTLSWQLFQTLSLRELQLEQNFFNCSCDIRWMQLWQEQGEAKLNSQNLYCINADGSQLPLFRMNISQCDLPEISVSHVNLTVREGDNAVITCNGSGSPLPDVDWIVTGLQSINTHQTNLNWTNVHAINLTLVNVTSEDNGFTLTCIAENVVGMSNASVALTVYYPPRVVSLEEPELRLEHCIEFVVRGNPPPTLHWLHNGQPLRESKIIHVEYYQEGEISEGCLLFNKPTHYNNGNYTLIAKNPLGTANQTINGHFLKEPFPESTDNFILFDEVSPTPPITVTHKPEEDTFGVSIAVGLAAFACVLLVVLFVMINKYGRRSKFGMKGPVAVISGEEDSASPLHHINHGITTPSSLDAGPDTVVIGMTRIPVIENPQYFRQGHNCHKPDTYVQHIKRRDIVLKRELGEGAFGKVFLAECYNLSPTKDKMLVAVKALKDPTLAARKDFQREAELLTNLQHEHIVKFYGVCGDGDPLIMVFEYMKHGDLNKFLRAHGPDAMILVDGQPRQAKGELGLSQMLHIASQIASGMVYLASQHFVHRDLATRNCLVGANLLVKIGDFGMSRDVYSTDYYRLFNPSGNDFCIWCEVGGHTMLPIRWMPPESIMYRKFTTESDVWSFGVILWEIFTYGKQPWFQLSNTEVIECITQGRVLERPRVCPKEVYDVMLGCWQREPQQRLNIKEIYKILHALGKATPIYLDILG
Experimental: as §5, §4

| Binder | inhibition of NGF-induced TrkA/Ba/F3 cell proliferation at 2.5 µg/mL (16.67 nM) or higher [1] [%] | IC50 of inhibiting NGF-induced TF-1 cell proliferation [2] [nM] | IC50 of inhibiting NGF-induced TrkA/Ba/F3 cell proliferation [3] [nM] | EC50 [4] [nM] | EC50 [5] [nM] | binding result [6] | IC50 [7] [nM] | Kd [8] [nM] | koff [8] [s⁻¹] | kon [8] [M⁻¹ s⁻¹] | binding result [9] | binding result [10] | binding result [11] | IC50 of inhibiting NGF-induced TF-1 cell proliferation [12] [nM] | IC50 of inhibiting NGF-induced TrkA/Ba/F3 cell proliferation [13] [nM] | EC50 [14] [nM] | EC50 [15] [nM] | binding result [16] | binding result [17] |
| --- | --- | --- | --- | --- | --- | --- | --- | --- | --- | --- | --- | --- | --- | --- | --- | --- | --- | --- | --- |
| B1 | 100 | 8.53 | 1.8 | 0.195 | 0.202 | binds | 2.28 | 0.0271 | 2.49e-05 | 918000 | binds | no binding (tested: 66.67 nM) | no binding (tested: 66.67 nM) | – | – | – | – | – | – |
| B2 | 100 | 3.58 | 0.782 | 0.175 | 0.135 | binds | 2.19 | 0.00677 | 9.91e-06 | 1.47e+06 | binds | no binding (tested: 66.67 nM) | no binding (tested: 66.67 nM) | – | – | – | – | – | – |
| B3 | 100 | 1.46 | 0.738 | 0.234 | 0.187 | binds | 2.05 | 0.00142 | 1.26e-06 | 889000 | binds | no binding (tested: 66.67 nM) | no binding (tested: 66.67 nM) | – | – | – | – | – | – |
| B4 | – | – | – | – | – | – | – | – | – | – | – | – | – | 1.55 | 2.92 | 0.49 | 0.062 | no binding | no binding |
| B5 | – | – | – | – | – | – | – | – | – | – | – | – | – | 1.57 | 2.97 | 0.605 | 0.061 | no binding | no binding |
| B6 | – | – | – | – | – | – | – | – | – | – | – | – | – | 1.48 | 4.42 | 0.68 | 0.072 | no binding | no binding |
